Source: patent publication US9187525B2, “Methods of treating ophthalmic diseases using NPR-B agonists” (Shire Orphan Therapies GmbH, dated 2015)
Numbered stars: 1 amine (or outer) side, 2 acyl side, 3 side chain; on linkers, the order of the positions; unused ones are H or OH. Square brackets hold non-standard residues; d marks the D form. Ends that are not written are not given here. * marks the point of attachment. ctb = (S)-2-amino-3-(tert-butylthio)propanoic acid, CC(C)(C)SC[C@@H](N[*:1])C(=O)[*:2]; 6988 = 2-pentyl-benzooxazole-5-carboxylic acid, CCCCCc1nc2cc(C(=O)*)ccc2o1; 3421 = 3-Amino-4-hydroxy-benzoic acid, O=C(c1ccc(O[*:3])c(N[*:1])c1)[*:2]; 4703 = 3-(4-bromo-phenyl)-propionic acid, O=C(CCc1ccc(Br)cc1)*; 4734 = (4-butoxy-phenyl)-acetic acid, CCCCOc1ccc(CC(=O)*)cc1; Pro(trans-4-NH2) = O=C([C@@H]1C[C@@H](N[*:3])CN1[*:1])[*:2]; Sni = (S)-nipecotic acid, O=C([C@H]1CCCN([*:1])C1)[*:2]; 1695 = Piperidine-1,2-dicarboxylic acid 1-benzyl ester; Butanoyl(4-(4-MeO-phenyl)) = COc1ccc(CCCC(=O)*)cc1; Phe(3,4-Cl2) = N[C@@H](Cc1ccc(Cl)c(Cl)c1)C(=O)O; Phe(3-CF3) = N[C@@H](Cc1cccc(C(F)(F)F)c1)C(=O)O; Phe(2-CF3) = N[C@@H](Cc1ccccc1C(F)(F)F)C(=O)O; Pbf = Cc1c(C)c(S(=O)(=O)*)c(C)c2c1OC(C)(C)C2; Phe(3-Cl) = N[C@@H](Cc1cccc(Cl)c1)C(=O)O; Pentanoyl(5-Ph) = O=C(CCCCc1ccccc1)*; Butanoyl(4-Ph) = O=C(CCCc1ccccc1)*; Gly(cPent) = N[C@H](C(=O)O)C1CCCC1; dDap(Me2) = CN(C)C[C@@H](N)C(=O)O; Hyp = O=C(O)[C@@H]1C[C@@H](O)CN1; 3Thi = N[C@@H](Cc1ccsc1)C(=O)O; NMeL = CN[C@@H](CC(C)C)C(=O)O; Chg = N[C@H](C(=O)O)C1CCCCC1; Nle = CCCC[C@H](N)C(=O)O; Octanoyl = CCCCCCCC(=O)*; Api = NC1(C(=O)O)CCNCC1; Che = not defined here; Hexanoyl = CCCCCC(=O)*; leu = not defined here; Occ = octanoic acid

T1: natriuretic peptide receptor-B (human)
T1 chain: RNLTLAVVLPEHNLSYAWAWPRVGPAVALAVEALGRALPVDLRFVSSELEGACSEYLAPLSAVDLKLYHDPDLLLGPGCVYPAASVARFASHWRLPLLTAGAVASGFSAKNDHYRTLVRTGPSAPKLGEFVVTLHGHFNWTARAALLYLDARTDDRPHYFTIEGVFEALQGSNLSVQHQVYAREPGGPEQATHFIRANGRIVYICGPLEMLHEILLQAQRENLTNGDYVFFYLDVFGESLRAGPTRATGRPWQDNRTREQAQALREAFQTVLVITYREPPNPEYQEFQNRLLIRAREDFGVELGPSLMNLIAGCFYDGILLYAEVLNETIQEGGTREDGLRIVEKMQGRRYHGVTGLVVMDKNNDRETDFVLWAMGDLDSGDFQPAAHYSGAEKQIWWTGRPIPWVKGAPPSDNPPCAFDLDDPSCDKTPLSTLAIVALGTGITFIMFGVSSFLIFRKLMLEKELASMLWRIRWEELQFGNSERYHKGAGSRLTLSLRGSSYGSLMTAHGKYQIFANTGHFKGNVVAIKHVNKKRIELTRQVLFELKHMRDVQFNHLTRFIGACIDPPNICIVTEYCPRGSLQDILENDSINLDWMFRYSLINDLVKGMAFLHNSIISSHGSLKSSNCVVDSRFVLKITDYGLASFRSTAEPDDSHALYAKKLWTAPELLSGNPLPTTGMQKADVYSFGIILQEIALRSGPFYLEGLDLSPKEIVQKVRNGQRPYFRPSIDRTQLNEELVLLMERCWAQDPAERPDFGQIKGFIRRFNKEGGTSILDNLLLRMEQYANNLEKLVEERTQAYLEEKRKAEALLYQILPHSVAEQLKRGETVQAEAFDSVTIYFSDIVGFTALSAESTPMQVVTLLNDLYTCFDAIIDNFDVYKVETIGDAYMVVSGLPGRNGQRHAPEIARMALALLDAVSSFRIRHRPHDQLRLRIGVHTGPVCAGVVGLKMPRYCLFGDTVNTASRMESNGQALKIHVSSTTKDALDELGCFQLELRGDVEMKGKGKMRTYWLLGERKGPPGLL

B1: JAL-1599 (peptide)
peptide: Octanoyl-[Sni][Phe(3,4-Cl2)][dL]L[Hyp][NMeL]DP[Che]
modifications: not fully specified; printed as Occ-Sni-Eaa-leu-Leu-Hyp-Nml-Asp-Pro-Che; reading uncertain
B2: JAL-1616 (peptide)
peptide: Hexanoyl-[3421][Sni]F[dL]L[Hyp][NMeL]DRI-NH2
modifications: not fully specified; printed as Hex-(3421)-Sni-Phe-leu-Leu-Hyp-Nml-Asp-Arg-Ile-NH2
B3: JAL-1604 (peptide)
peptide: [Occ][Sni]F[dDap(Me2)]L[Hyp][NMeL]DP[Che]
modifications: reading uncertain; also: printed as Occ-Sni-Phe-dap(Me2)-Leu-Hyp-Nml-Asp-Pro-Che
B4: JAL-0697 (peptide)
peptide: XXFGLKLDRI
HELM: PEPTIDE1{[CCCCCCCC(=O)[*:2]].[O=C(C1CCCN([*:1])C1)[*:2]].F.G.L.K.L.D.R.I.[am]}$$$$V2.0
SMILES: CCCCCCCC(=O)N1CCCC(C(=O)N[C@@H](Cc2ccccc2)C(=O)NCC(=O)N[C@@H](CC(C)C)C(=O)N[C@@H](CCCCN)C(=O)N[C@@H](CC(C)C)C(=O)N[C@@H](CC(=O)O)C(=O)N[C@@H](CCCNC(=N)N)C(=O)N[C@H](C(N)=O)[C@@H](C)CC)C1
B5: JAL-1603 (peptide)
peptide: [Occ][Sni]F[dDap(Me2)]L[Pro(trans-4-NH2)][NMeL]DP[Che]
modifications: reading uncertain; also: printed as Occ-Sni-Phe-dap(Me2)-Leu-Tap-Nml-Asp-Pro-Che

Target: T1, natriuretic peptide receptor-B
Experiment: cell-based or functional assay

Row | EC50 group, cGMP in GTM-3 cells [nM] | Binder
1 | ≤ 1000 | [Occ][Sni]F[leu]L[Hyp]IDRI-NH2 (reading uncertain; also: printed as Occ-Sni-Phe-leu-Leu-Hyp-Ile-Asp-Arg-Ile-NH2) [JAL-1625]
2 | ≤ 1000 | [Occ][Sni][Pbf][leu]L[Hyp][NMeL]DRI-NH2 (reading uncertain; also: printed as Occ-Sni-Pbf-leu-Leu-Hyp-Nml-Asp-Arg-Ile-NH2) [JAL-1619]
3 | ≤ 1000 | [Occ][Sni]F[leu]L[Hyp][Gly(cPent)]DRI-NH2 (reading uncertain; also: printed as Occ-Sni-Phe-leu-Leu-Hyp-Cpg-Asp-Arg-Ile-NH2) [JAL-1626]
4 | ≤ 5000 | [Occ][Sni]FGL[Hyp][NMeL]DP[Che] (reading uncertain; also: printed as Occ-Sni-Phe-Gly-Leu-Hyp-Nml-Asp-Pro-Che) [JAL-1600]
5 | ≤ 5000 | 4734-[Sni]F[dL]L[Hyp][NMeL]DRI-NH2 [JAL-1609]
6 | ≤ 15000 | [Occ][Sni][Phe(2-CF3)][leu]L[Hyp][NMeL]DRI-NH2 (reading uncertain; also: printed as Occ-Sni-Otf-leu-Leu-Hyp-Nml-Asp-Arg-Ile-NH2) [JAL-1622]
7 | ≤ 15000 | 6988-[Sni]F[dL]L[Hyp][NMeL]DRI-NH2 [JAL-1615]
8 | ≤ 1000 | B1
9 | ≤ 5000 | B2
10 | ≤ 5000 | 4703-[Sni]F[dL]L[Hyp][NMeL]DRI-NH2 [JAL-1612]
11 | ≤ 1000 | B3
12 | ≤ 5000 | [Occ][Sni]F[Api]L[Hyp][NMeL]DP[Che] (reading uncertain; also: printed as Occ-Sni-Phe-Apc-Leu-Hyp-Nml-Asp-Pro-Che) [JAL-1601]
13 | ≤ 15000 | 1695-[Sni]F[dL]L[Hyp][NMeL]DRI-NH2 (not fully specified; printed as 1695-Sni-Phe-leu-Leu-Hyp-Nml-Asp-Arg-Ile-NH2) [JAL-1617]
14 | ≤ 5000 | B4
15 | ≤ 15000 | {Butanoyl(4-(4-MeO-phenyl))}-[Sni]F[dL]L[Hyp][NMeL]DRI-NH2 [JAL-1607]
16 | ≤ 1000 | [Occ][Sni]F[Api]L[Pro(trans-4-NH2)][NMeL]DP[Che] (reading uncertain; also: printed as Occ-Sni-Phe-Apc-Leu-Tap-Nml-Asp-Pro-Che) [JAL-1602]
17 | ≤ 1000 | [Occ][Sni]F[ctb]L[Hyp][NMeL]DRI-NH2 [JAL-1623]
18 | ≤ 1000 | Octanoyl-[Sni][Phe(3-Cl)][dL]L[Hyp][NMeL]DRI-NH2 (not fully specified; printed as Occ-Sni-Mcf-leu-Leu-Hyp-Nml-Asp-Arg-Ile-NH2) [JAL-1618]
19 | ≤ 1000 | [Occ][Sni][Phe(3-CF3)][leu]L[Hyp][NMeL]DRI-NH2 (reading uncertain; also: printed as Occ-Sni-Mtf-leu-Leu-Hyp-Nml-Asp-Arg-Ile-NH2) [JAL-1621]
20 | ≤ 1000 | [Occ][Sni]F[leu][Nle][Hyp][NMeL]DRI-NH2 (reading uncertain; also: printed as Occ-Sni-Phe-leu-Nle-Hyp-Nml-Asp-Arg-Ile-NH2) [JAL-1624]
21 | ≤ 1000 | B5
22 | ≤ 1000 | [Occ][Sni][3Thi][leu]L[Hyp][NMeL]DRI-NH2 (reading uncertain; also: printed as Occ-Sni-Thk-leu-Leu-Hyp-Nml-Asp-Arg-Ile-NH2) [JAL-1620]
23 | ≤ 1000 | {Pentanoyl(5-Ph)}-[Sni]F[dL]L[Hyp][NMeL]DRI-NH2 [JAL-1606]
24 | ≤ 5000 | [Occ][Sni]F[leu]L[Hyp][Chg]DRI-NH2 (reading uncertain; also: printed as Occ-Sni-Phe-leu-Leu-Hyp-Chg-Asp-Arg-Ile-NH2) [JAL-1627]
25 | ≤ 15000 | {Pentanoyl(5-Ph)}-[dP]FGLKLDRI-NH2 [JAL-0696]
26 | ≤ 1000 | {Butanoyl(4-Ph)}-[Sni]F[dL]L[Hyp][NMeL]DRI-NH2 [JAL-1605]
